The values below come from the RNAGym collection of RNA variant scans (doi:10.7554/elife.80360).

B1: HDV Ribozyme (parent)
chain: GGCCGGCAUGGUCCCAGCCUCCUCGCUGGCGCCGGCUGGGCAACAUUCCGAGGGGACCGUCCCCUCGGUAAUGGCGAAUGGGACCCA

In the series the parent is B1. As to the kind of experiment: self-cleavage, relative activity (ratio to wild type); higher = more cleavage; co-transcriptional.
With GGCCGGCAUGGUCCCAGCCUCCUCGCUGGCGCCGGCUGGGCAACAUUACGAGGGGACCGUCCCCUCGGUAAUGGCAAAUGGGACCCA [C48A G76A], the self-cleavage amounted to 0.727.

Consider GGCCGGGAUGGUCCCAGCCUCCUCGCUGGCGCCGGCUGGGCAACAUUCCGAGGGGACCGUCCCCUCGGUAAUCGCGAAUGGGACCCA [C7G G73C], for which the self-cleavage turned out to be 0.

Consider GGCCGGCAUGGUCCCAGCCUCCUCGCUGGCGCCGGCUGGGCAACAUUCCUAGGGGACCGUCCACUCGGUAAUGGCGAAUGGGACCCA [G50U C63A], for which the self-cleavage came out at 0.57.

Take GGCCGGCAUGGUCCCAGCCUCCUCGCUGGCGCCGGCUGGGCAACGUUCCGAGGGGACCGUCCCCUCGGUAAUGGCGAAUGGGAUCCA [A45G C84U]: the self-cleavage amounted to 0.658.

As to GACCGGCAUGGUCCCAGCCUCCUCGUUGGCGCCGGCUGGGCAACAUUCCGAGGGGACCGUCCCCUCGGUAAUGGCGAAUGGGACCCA [G2A C26U], the self-cleavage amounted to 0.138.

As for GGCCGGCAUGGUCCCAGCCUCCUCGCUGACGCCGGCUGGGCAACAUUCCGAGGGGACCGUCCGCUCGGUAAUGGCGAAUGGGACCCA [G29A C63G], the self-cleavage was 0.128.

As for GGCCCGCAUGGUCCCAGCCUCCUUGCUGGCGCCGGCUGGGCAACAUUCCGAGGGGACCGUCCCCUCGGUAAUGGCGAAUGGGACCCA [G5C C24U], the self-cleavage was found to be 0.252.

For the variant GGCCGGCAUGGUCCCAGCCUCCUCGCUCGCGCCGGCGGGGCAACAUUCCGAGGGGACCGUCCCCUCGGUAAUGGCGAAUGGGACCCA [G28C U37G], the self-cleavage amounted to 0.

With GGCCGGCAUGGUCCCAGCCUCCUCGCUGGCGCCGGCUGGGCAACAUUCCGAAGGGACCGUCCCCUCGGUAAUGGCGAAUUGGACCCA [G52A G80U], the self-cleavage was 0.262.

As to GGCCGGCAUGGUCCCAGCCUCCUCGCUGGCGCCGGCUGGGCACCAUUCCGAGGGGACCGUCCCUUCGGUAAUGGCGAAUGGGACCCA [A43C C64U], the self-cleavage stood at 0.391.

As for GGCCGGCAUGGUCCCAACCUCCUCGCUGGCGCCGGCUGGGCAACAUUCCGAGGGGACCGUCCCCUCGGUAAUGGCGUAUGGGACCCA [G17A A77U], the self-cleavage came out at 0.138.

As for GGACGGCAUGGUCCCAGCCUCCUCGCUGGCGCCGGCUGGGCAACAUUCCGAGGGGACCGUCCCCUCGGUAAUGGCGAAUGCGACCCA [C3A G81C], the self-cleavage came to 0.0158.

GGCCGGCAUGGUCCCAGCCUCCUCGCUGGCGCCUGCUGGGCAACAUUCCGAGGGGACCGUCCCCUCCGUAAUGGCGAAUGGGACCCA [G34U G67C]: the self-cleavage is 0.22.

For GGCCGGCAUGGUCCCAGCCUCCUCGCUGGCUCCGGCUGGGCAACAUUCCGAGGGGCCCGUCCCCUCGGUAAUGGCGAAUGGGACCCA [G31U A56C], the self-cleavage is 0.389.

As to GGCCGGCAUGGUUCGAGCCUCCUCGCUGGCGCCGGCUGGGCAACAUUCCGAGGGGACCGUCCCCUCGGUAAUGGCGAAUGGGACCCA [C13U C15G], the self-cleavage is 0.356.

Consider GGCCGGCAUGGUCCCAGCCUCCUCGCUGGCGCCGGCUGGGCAACAUUCCGAGGGGACCGUCCCCUCGGUAAUGGCGAAUGUAACCCA [G81U G82A], for which the self-cleavage amounted to 0.277.

As for GGCCGGCAUGGUCCCAGCCUCCUCGCUGGCGGCGGCUGGGCAACAUUCCGAGGGGACCGUCCCCUCGGUAAUGGCGAACGGGACCCA [C32G U79C], the self-cleavage is 0.0205.

Consider GGCCGGCAUGGUCCCAGCCUCCUCGCUGGCGCCUGCUGGGCAACCUUCCGAGGGGACCGUCCCCUCGGUAAUGGCGAAUGGGACCCA [G34U A45C], for which the self-cleavage was 0.117.

For the variant GGCCCGCAUGGUCCCAGCCUCCUCGCUGGCGCCGGCUGGGCAACAUUCCGAGGGGACCGUCCCCGCGGUAAUGGCGAAUGGGACCCA [G5C U65G], the self-cleavage turned out to be 0.0978.

For the variant GGCCGGCAUGGUCCCAGCCUCCUCGCUGGCGUCGGCUGGGCAACAUUCCGAGGGGACCGUCCCCUAGGUAAUGGCGAAUGGGACCCA [C32U C66A], the self-cleavage is 0.991.

For GGCCGGCAUGGUCCCAGCCUCCUCGCUCGCGCCGGCUGGGCAACAUUCCGAGGGGACCGUCCCCUCGGUAAGGGCGAAUGGGACCCA [G28C U72G], the self-cleavage worked out at 0.138.

As to GGCCGGCAUGGUCCCAGCCUCCUCGCAGGCGCCGGCUGGGCAACAUUACGAGGGGACCGUCCCCUCGGUAAUGGCGAAUGGGACCCA [U27A C48A], the self-cleavage is 0.831.

As to GGCCGGCAUGGUCCCAGCCUCCUCGCUGGCGCCGGCAGGGCAACAUUCCGAGGGGACCGUCCCCUCGGCAAUGGCGAAUGGGACCCA [U37A U69C], the self-cleavage came to 0.415.

On to GGCCGGCAUGGUCCCAGCCUCCUCGCUGGCGCCGGCUGGGCAACAUUCCGCGGGGACCGUCCCCUCGGUAAUGGCGAAUGGGACCCA [A51C], for which the self-cleavage is 0.972.

On to GGCCGGCAUGGUCCCAGCCUCCUCGCUCGCGCCGGCUGGGCAACAUUCCGAGGGGACCGUCCCCUCGGUAGUGGCGAAUGGGACCCA [G28C A71G], for which the self-cleavage was found to be 0.222.

GGCCGGCAUGGUCCCAGCCUCCUCGCUGGCGCCGGCUGGGCGACAUUCCGAGGGGAUCGUCCCCUCGGUAAUGGCGAAUGGGACCCA [A42G C57U]: the self-cleavage was 0.527.

Take GGCCGGCAUGGUCCCAGCCUCCUCGCAGGCGCCGGCUGGGCAACAUUCCGAGGGGUCCGUCCCCUCGGUAAUGGCGAAUGGGACCCA [U27A A56U]: the self-cleavage worked out at 0.923.

On to GGCCGGCAUGGUCCCAGCCUCCCCGCUGGCGCCGGCUGGGCAACAUUCCGAGGGGACCGUCCUCUCGGUAAUGGCGAAUGGGACCCA [U23C C63U], for which the self-cleavage turned out to be 0.984.

Turning to GGCCGGCAUGGUCCGAGCCUCCUCGCUGGCGCCGGCUGGGCAACAUUCCGAGGGGACCGUCCCCUCGGAAAUGGCGAAUGGGACCCA [C15G U69A], the self-cleavage amounted to 0.604.

As to GGCCGGAAUGGUCCCAGCCUCCUCGCUGGCGCCGGCUGGGCAACAUUCCGAGGGGACCGUCCCCUCGGUAAUGGCGAAUGGGACCCC [C7A A87C], the self-cleavage amounted to 0.514.

For GGCCGGCAUGGACCCAGCCUCCUCGCUGGCGCCGGCUUGGCAACAUUCCGAGGGGACCGUCCCCUCGGUAAUGGCGAAUGGGACCCA [U12A G38U], the self-cleavage was found to be 0.0277.

GGCCGGAAUGGUCCCGGCCUCCUCGCUGGCGCCGGCUGGGCAACAUUCCGAGGGGACCGUCCCCUCGGUAAUGGCGAAUGGGACCCA [C7A A16G]: the self-cleavage was 0.249.
